Read-outs that look alike come from different tables or passages of the source.

In assay [1] the target is human CD3 on Jurkat cells (human). The assay is described as follows: FACS. (In general: A flow cytometer gives signals particle by particle.)
Assay [2] addresses human PSMA, N-terminal 6xHis (soluble) (human). The assay is described as follows: SPR, 37C.
The target is the same in assay [3]. The assay is described as follows: SPR, 37C. This is another data set of the same source.
Assay [4] addresses human CD3 epsilon/delta heterodimer, Fc-tagged (human). The assay is described as follows: SPR, 25C antigen-capture.
For assay [5], the target named is human CD3 on Jurkat cells (human). The assay is described as follows: FACS. The source holds these as a separate data set.
The target of assay [6] is human CD3 epsilon/delta heterodimer, Fc-tagged (human). The assay is described as follows: SPR, 25C antibody-capture.
Chain of human CD3 epsilon/delta heterodimer, Fc-tagged (human) (chain, as listed by the source mutant, chain 1 of 2): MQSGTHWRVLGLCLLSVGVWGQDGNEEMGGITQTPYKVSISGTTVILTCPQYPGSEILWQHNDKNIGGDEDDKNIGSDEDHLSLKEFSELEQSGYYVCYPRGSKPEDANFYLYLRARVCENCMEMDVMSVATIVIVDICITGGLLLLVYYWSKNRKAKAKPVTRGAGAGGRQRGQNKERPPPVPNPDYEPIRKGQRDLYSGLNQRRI
Chain of human CD3 epsilon/delta heterodimer, Fc-tagged (human) (chain, as listed by the source mutant, chain 2 of 2): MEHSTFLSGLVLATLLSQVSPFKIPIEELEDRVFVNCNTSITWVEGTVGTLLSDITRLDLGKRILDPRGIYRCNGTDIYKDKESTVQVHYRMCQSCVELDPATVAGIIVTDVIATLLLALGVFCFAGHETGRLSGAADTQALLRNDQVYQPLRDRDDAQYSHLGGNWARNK
Assay [7] has as its target human CD3 on Jurkat cells (human). The assay is described as follows: FACS. This is another data set of the same source.
Assay [8] shares this target. The assay is described as follows: FACS. The source holds these as a separate data set.
The target of assay [9] is human CD3 epsilon/delta heterodimer, Fc-tagged (human). The assay is described as follows: SPR, 25C antibody-capture. The source holds these as a separate data set. In general terms: SPR reads the build-up and loss of mass on a sensor chip optically.
For assay [10] the target is unchanged. The assay is described as follows: SPR, 25C antigen-capture. The source holds these as a separate data set.
The target in assay [11] is T1, cynomolgus CD3 on T cells (cynomolgus monkey).
T1 chain: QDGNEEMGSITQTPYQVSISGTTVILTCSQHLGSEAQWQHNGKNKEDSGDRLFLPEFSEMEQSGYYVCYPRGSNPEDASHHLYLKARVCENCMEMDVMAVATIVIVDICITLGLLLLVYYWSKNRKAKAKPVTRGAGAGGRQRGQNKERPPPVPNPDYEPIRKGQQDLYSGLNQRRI
The assay is described as follows: FACS.

A further assay addresses human PSMA on cells (human). The assay is described as follows: FACS, 22RV1.
Assay [12] deals with human CD3 epsilon/delta heterodimer, Fc-tagged (human). The assay is described as follows: SPR, 25C antibody-capture. This is another data set of the same source.
In assay [13] the target is human CD3 on Jurkat cells (human). The assay is described as follows: FACS. This is another data set of the same source.
The target in assay [14] is T1, cynomolgus CD3 on T cells. The assay is described as follows: FACS.
Assay [15] deals with human CD3 epsilon/delta heterodimer, Fc-tagged (human). The assay is described as follows: SPR, 37C.

Chain of human PSMA, N-terminal 6xHis (soluble) (human) (A4UU12 whole entry): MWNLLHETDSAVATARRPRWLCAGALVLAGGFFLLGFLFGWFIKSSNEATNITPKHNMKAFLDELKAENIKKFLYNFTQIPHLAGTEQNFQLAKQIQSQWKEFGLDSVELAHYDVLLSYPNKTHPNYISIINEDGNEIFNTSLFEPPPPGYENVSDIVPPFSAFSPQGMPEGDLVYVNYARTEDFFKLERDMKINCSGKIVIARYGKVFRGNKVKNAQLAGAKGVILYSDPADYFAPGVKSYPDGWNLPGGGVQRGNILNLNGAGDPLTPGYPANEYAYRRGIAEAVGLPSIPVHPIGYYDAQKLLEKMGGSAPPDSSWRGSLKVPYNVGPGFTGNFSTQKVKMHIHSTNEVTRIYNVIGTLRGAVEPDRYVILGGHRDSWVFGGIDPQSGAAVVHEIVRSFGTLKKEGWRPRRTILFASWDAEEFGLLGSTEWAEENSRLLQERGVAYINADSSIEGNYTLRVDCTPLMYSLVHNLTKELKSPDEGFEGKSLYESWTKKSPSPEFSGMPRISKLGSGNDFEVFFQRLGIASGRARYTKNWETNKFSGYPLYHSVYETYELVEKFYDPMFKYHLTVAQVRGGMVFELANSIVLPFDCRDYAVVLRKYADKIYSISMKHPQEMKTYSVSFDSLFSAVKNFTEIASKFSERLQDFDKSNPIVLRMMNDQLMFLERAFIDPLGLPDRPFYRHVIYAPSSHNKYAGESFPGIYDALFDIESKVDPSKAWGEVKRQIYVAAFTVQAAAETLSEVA
Chain of human CD3 on Jurkat cells (human) (chain, as listed by the source, chain 1 of 2): as the sequence (chain, as listed by the source mutant, chain 1 of 2) above
Chain of human CD3 on Jurkat cells (human) (chain, as listed by the source, chain 2 of 2): as the sequence (chain, as listed by the source mutant, chain 2 of 2) above
Chain of human PSMA on cells (human) (A4UU12 whole entry): as the sequence (A4UU12 whole entry) above

B1: H2M2689N (antibody, V domains shown)
VH: QVQLVESGGGVVQPGRSLRLSCAASGFTFSRKGMHWVRQAPVKGLEWVAVISYDGSNKYYADSVKGRFTISRDNSKNTLYLQMNSLTAEDTAVYYCAKEGGHDYGGTFDYWGQGTLVTVSS
VL: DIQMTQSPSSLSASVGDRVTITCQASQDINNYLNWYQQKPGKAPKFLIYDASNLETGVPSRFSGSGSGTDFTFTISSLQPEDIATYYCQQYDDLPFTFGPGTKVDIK
Consider B1, for which the binding result in assay [1] is recorded as “no binding”.

B2: H1M11453N (antibody, V domains shown)
VH: EFQVVESGGGLVKPGGSLRLSCVVSGFTFSNYNMNWVRQAPAKGLEWVSSISTGSSDIYYADSVKGRFTISRDNAKNSLYLQMNSLRVEDTAVYYCARDIIGTTRDWGQGTLVTVSS
VL: DIQMTQSPSSLSASVGDSVTITCRASQSINNYLNWYQQKPGKAPKLLIYTASSLLSGVPSRFSGSGSGTDFTLTISGLHPEDFATYFCQQSFSTPPITFGQGTRLDIK
In the case of B2, in assay [2], binding was put at a Kd of 1.93 nM.

B3: H1H11835P2 (antibody, V domains shown)
VH: EVQLVESGGGLVQSGGSLRLSCEASGFTFSNYWMTWIRQGPGKGLEWVANIKPDGTENYYVDSVKGRFTISRDNARNSLYLQMTSLKAEDTAVYYCGRMIQFVINIWGQGTLVTVSS
VL: DIQMTQSPSSLSASVGDSVTITCRASQSINNYLNWYQQKPGKAPKLLIYTASSLLSGVPSRFSGSGSGTDFTLTISGLHPEDFATYFCQQSFSTPPITFGQGTRLDIK
B3: binding in assay [3] was put at a Kd of 14 nM.

B4: H2M11899N (antibody, V domains shown)
VH: QVQLVESGGGVVQPGRSLRLSCAASGFTFSSYDIHWVRQAPGKGLEWVSVIWYDGSNKYYADSVKGRFTISRDNSKNTLYLQMNSLRAEDTAVYYCARTVAARNYDYYVMDVWGQGTTVTVSS
VL: DIQMTQSPSSLSASVGDSVTITCRASQSINNYLNWYQQKPGKAPKLLIYTASSLLSGVPSRFSGSGSGTDFTLTISGLHPEDFATYFCQQSFSTPPITFGQGTRLDIK
B4: binding in [2] was characterised by a dissociation constant (Kd) of 1.76 nM.

B5: H1H7279P (antibody, V domains shown)
VH: EVQLVESGGGLVKPGGSLRISCAASGFSFINAWMNWVRQAPGKGLEWVGRIKSISDGGTTDYAASVKGRFTISREDSKNMLFLEMNSLKTEDTAVFYCTTEVARTPNYWGRGTLVTVSS
VL: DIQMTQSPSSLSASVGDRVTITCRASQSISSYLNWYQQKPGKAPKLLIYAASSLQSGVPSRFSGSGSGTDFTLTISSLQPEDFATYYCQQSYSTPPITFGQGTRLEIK
Take B5: the binding result in assay [4] and in [5] was “no binding” throughout.

B6: H1H5752P (antibody, V domains shown)
VH: QVQLVESGGGVVQPGRSLRPSCAASGFSFRDYGMHWVRQAPGKGLEWMAHIWYNGKNKYYADSVKGRFTISRDNSKNTLYLQMNSLRPEDTAVYYCARDGVSARGTPFDYWGQGTLVTVSS
VL: ETTLTQSPAFMSAAPGDKVSISCIASQYIDDDVNWYQQKPGETAIFIIQEASTLVPGISPRFSGSGYGTHFTLTINNIDSEDAAFYFCLQHDNFPYTFGQGTKLEIK
Turning to B6, the binding result in assay [6] is given as “no binding”.

B7: H1H5782P (antibody, V domains shown)
VH: EVQLVESGGGLVQPGRSLRLSCAASGFTFDDYAMHWVRQAPGKGLEWVSGISWNSGSKDYADSVKGRFTISRDNTRNSLFLQMNSLRTEDTALYYCAKDKSGYGSFYYGMDVWGQGTTVTVSS
VL: not shown
On to B7, for which the binding result in [7] and in assay [6] was “no binding” in each case.

B8: H1H7194P (antibody, V domains shown)
VH: EVQLVESGGGLVQPGRSLRLSCAASGFTFGDYTMHWVRQAPGKGLEWVSDISWNSGSKDYADSVKGRFTISRDNAKNSLYLQMNSLRTEDTAFYYCAKDSRGYGLYYHLGLDVWGQGTTVTVSS
VL: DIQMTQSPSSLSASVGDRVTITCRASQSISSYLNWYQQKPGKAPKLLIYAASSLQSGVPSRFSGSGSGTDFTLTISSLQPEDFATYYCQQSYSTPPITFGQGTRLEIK
For the molecule B8, the half-maximal effective concentration (EC50) in [8] came out at 1.5 nM. For the same molecule, the affinity in assay [9], expressed as Kd, was 13 nM.

B9: H1H7250P (antibody, V domains shown)
VH: QVQLVESGGGLVQPGRSLRLSCAASGFTFDDYTMHWVRQGPGKGLEWVSDIGWNSNTKGYADSVKGRFTISRDNAKNSLYLQMNSLRPEDTALYFCVKDKSGYGKFFIGLDVWGQGTMVTVSS
VL: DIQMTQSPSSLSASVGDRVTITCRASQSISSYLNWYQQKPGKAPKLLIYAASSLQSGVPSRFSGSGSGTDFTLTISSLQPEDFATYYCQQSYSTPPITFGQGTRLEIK
In [10], B9 gave a Kd of 0.82 nM.

B10: H1H2690N (antibody, V domains shown)
VH: EVQLVESGGGLVQPGRSLRLSCAASGFTFDDYTMHWVRQAPGKGLEWVSGISWNSGSIGYADSVKGRFTISRDNAKKSLYLQMNSLRAEDTALYYCAKDNSGYGHYYYGMDVWGQGTTVTVAS
VL: EIVMTQSPATLSVSPGERATLSCRASQSVSSNLAWYQQKPGQAPRLLIYGASTRATGIPARFSGSGSGTEFTLTISSLQSEDFAVYYCQHYINWPLTFGGGTKVEIK
Turning to B10, the EC50 in assay [11] was found to be 5.66 nM.

B11: BSPSMA/CD3-001 PSMA arm (antibody, V domains shown)
VH: QVQLVESGGGVVQPGRSLRLSCAASGFTFITYGMHWVRQAPGKGLEWVAIIYYDESNKYYADSVKGRFTISRDISKNTLYLQMNGLRAEDTAVYYCARAPRVAVEEDYSYYYGMDVWGQGTTVTVSS
VL: EIVMTQSPATLSVSPGERAILSCRASQNINSNLAWYQQKPGQAPRLLIYGASTRATGVPARFSGSGSGTEFTLTIRSLQSEDFAVYYCQQYYNWPITFGHGTRLEIK
In the case of B11, the response with human PSMA on cells was half-maximal at 78.5 nM (EC50).

B12: H1xH7221G3 (antibody, V domains shown)
VH: EVQLVESGGGLVQPGRSLRLSCAASGFTFDDYSMHWVRQAPGKGLEWVSGISWNSGSIGYADSVKGRFTISRDNAKNSLYLQMNSLRAEDTALYYCAKDGSGYGYFYYYGMDVWGQGTTVTVSS
VL: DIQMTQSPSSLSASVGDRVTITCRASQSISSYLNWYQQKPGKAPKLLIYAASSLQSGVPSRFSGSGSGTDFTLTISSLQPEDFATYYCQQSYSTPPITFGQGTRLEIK
As for B12, the binding result in assay [12] is recorded as “no binding”.

B13: BSPSMA/CD3-400 CD3 arm (antibody, V domains shown)
VH: EVQLVESGGGLVQPGRSLRLSCAASGFTFDDYAMHWVRQAPGKGLEWVSGISWNSGSIGYADSVKGRFTISRDNAKNSLYLQMNSLRAEDTALYYCAKDGSGYGKFYYYGMDVWGQGTTVTVSS
VL: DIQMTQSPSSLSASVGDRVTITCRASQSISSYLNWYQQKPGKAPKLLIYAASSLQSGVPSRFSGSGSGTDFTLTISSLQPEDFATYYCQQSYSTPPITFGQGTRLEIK
For B13, the binding result in assay [13], in assay [14] and in assay [15] was “no binding” throughout.

B14: BSPSMA/CD3-200 CD3 arm (antibody, V domains shown)
VH: EVQLVESGGGLVQPGRSLRLSCAASGFTFDDYAMHWVRQAPGKGLEWVSGISWNSGSIGYADSVKGRFTISRDNAKNSLYLQMNSLRAEDTALYYCAKDGSGYGYFYYYGMDVWGQGTTVTVSS
VL: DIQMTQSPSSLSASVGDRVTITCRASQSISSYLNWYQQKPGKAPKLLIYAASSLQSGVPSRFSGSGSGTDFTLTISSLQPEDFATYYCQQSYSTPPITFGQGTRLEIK
B14: the binding result in assay [13], in [14] and in [15] was “no binding” each time.

B15: BSPSMA/CD3-300 CD3 arm (antibody, V domains shown)
VH: EVQLVESGGGLVQPGRSLRLSCAASGFTFDDYSMHWVRQAPGKGLEWVSGISWNSGSIGYADSVKGRFTISRDNAKNSLYLQMNSLRAEDTALYYCAKDGSGYGYFYYYGMDVWGQGTTVTVSS
VL: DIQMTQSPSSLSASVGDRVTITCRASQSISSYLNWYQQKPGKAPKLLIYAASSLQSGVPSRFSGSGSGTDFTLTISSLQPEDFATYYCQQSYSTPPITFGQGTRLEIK
For B15, the binding result in assay [13], in assay [14] and in [15] was “no binding” each time.

B16: H1H7232P (antibody, V domains shown)
VH: EVQLVESGGGLVHPGRSLRLSCAASGFTFDDYTMHWVRQAPGKGLEWVSDISWNSGSRGYADSVKGRFTISRDNAENSLYLQMNSLRAEDTALYYCAKDKSGYGHYYYYAMDVWGQGTTVTVSS
VL: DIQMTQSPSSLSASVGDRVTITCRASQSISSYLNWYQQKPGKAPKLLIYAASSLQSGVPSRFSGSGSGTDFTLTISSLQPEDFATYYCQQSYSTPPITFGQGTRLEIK
As to B16, the Kd stood at 10 nM in [10] and 220 nM in assay [9]. In assay [8], a half-maximal effect (EC50) was put at 1.5 nM.

B17: H1H7221P (antibody, V domains shown)
VH: EVQLVESGGGLVQPGRSLRLSCVASGFTFDDYSMHWVRQAPGKGLEWVSGISWNSGSKDYADSVKGRFTISRDNAKNSLYLQMNSLRAEDTALYYCAKYGSGYGKFYHYGLDVWGQGTTVTVSS
VL: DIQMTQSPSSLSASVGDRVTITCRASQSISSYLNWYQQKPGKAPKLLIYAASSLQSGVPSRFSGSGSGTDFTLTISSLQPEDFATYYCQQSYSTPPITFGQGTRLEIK
For the molecule B17, the response in [8] was half-maximal at 1.4 nM (EC50).

B18: H1xH7221G5 (antibody, V domains shown)
VH: EVQLVESGGGLVQPGRSLRLSCAASGFTFDDYSMHWVRQAPGKGLEWVSGISWNSGSIGYADSVKGRFTISRDNAKNSLYLQMNSLRAEDTALYYCAKDGSGYGKFYYYGMDVWGQGTTVTVSS
VL: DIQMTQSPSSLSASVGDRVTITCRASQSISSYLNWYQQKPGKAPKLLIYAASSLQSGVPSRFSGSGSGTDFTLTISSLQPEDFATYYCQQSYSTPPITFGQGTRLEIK
In the case of B18, the binding result in [12] was “no binding”.

The Kd is the concentration at which binding is half-saturated. In general, EC50 refers to the concentration needed to bring the measured effect to its halfway point. Higher therefore signals weaker potency.

For the origin of these results see patent US20210403595 (published 2021).
